Data: paper PMC3034312

B1: SSCG_03688; (+)-T-muurolol synthase (Streptomyces clavuligerus) (protein)
chain: MSLNHSDLMFYCPVDDLPHPAASGVNDRTLDWASGQGIPTADRDAGRLRAMAPGLLAARIAPDARGPVLDAFADHHTWLFAFDDEYCDRADGSGITEWASFLARLHRVVETGESALLPGNPYGLALRDIACRLSTYTTPAQLAEWLEALRSYFAALVWERSRRRDDDRLQSLDDYLLLRLRNGAMHTSITLLDTVNGYVLPRELRETPGVRALVEMTALLVSVDNDILSHHKESTSGTREANLLDVLGRTGHTTPGEAVAQAVALRNEIMRQFVRVAERVRTPAAVPELYRFTTGLARWIRANLDFSLTTTRYTGPVTERAALSPHEVPPLSGQGPAPARSDVIGWWWRIPEPLPEPGSDGADTPVRKRRAGDRPPTAGRGGAPHHQRTGPPPPVLPGGITASRSSGLQQSTWRREHR
B2: SSCG_02150; (−)-δ-cadinene synthase (Streptomyces clavuligerus) (protein)
chain: MSTRPVEGSAIWDVLSPHSPHAAAADGKTLVWVEAGELCGHDTAESANLARIRPGLLAAFCHPKATEDDLTLITKWMAWLFLLDDRIDESDLGRDADLLDGHLQDLQGVALGIRTASGPMSRALEEIITQASAGMGDAWQLRFRRNISDYLLACVWQAAHRQAGEFPDPEVFPHWRRAFGAIMPSFDLIERTDGGALPSCVYYSRPYQSLLTAAADLVCWTNDLMTVDKEAAHGDLHNLVLVTEHDRHQDRRTASAAVSAACEQRMRAHTSARRDLTGLTAALGLPDTVRTHADDCAASLLVWVRGHLEWGLETPRYRPGTTGTGTD

Substrate: CC(C)=CCC/C(C)=C/CC/C(C)=C/CO[P@@](=O)(O)OP(=O)(O)O
Assay: steady-state kinetics, 30-min radiolabel incubations
Format: biochemical, Streptomyces clavuligerus
Conditions: labelled compound ([1-3H]-FPP, 0.25 to 7.5 μM)

| Protein | Km | kcat |
| --- | --- | --- |
| B1 | 2.7 ± 0.3 µM | 1.63 ± 0.09 × 10^−3 s^−1 |
| B2 | 1.4 ± 0.1 µM | 1.14 ± 0.03 × 10^−3 s^−1 |
